Data from patent publication US20140242093A1, “METHODS AND COMPOSITIONS FOR MODULATING THE INNATE IMMUNE RESPONSE AND/OR MYOGENESIS IN A MAMMALIAN SUBJECT” (FRED HUTCHINSON CANCER RESEARCH CENTER, priority 2011, published 2014).

How the values were obtained:
[1] = test system: 31-bp oligonucleotides containing the putative DUX4 binding site; assay: Electromobility shift assay (EMSA); design: species or system human; conditions: in vitro translated protein; TRIM48, CSF1R, THE1D oligos
Procedure: EMSA was performed with ^32P-labeled 31-bp oligonucleotides from endogenous genomic sequences containing the putative DUX4 binding site as probes (sequences below; only forward shown). Radiolabeled probes were incubated with in vitro translated protein generated from pCS2-DUX4-fl or pCS2-DUX4-s^2 vectors using the TNT SP6 Coupled Wheat Germ Extract System (Promega) according to manufacturer's instructions. To obtain supershift of protein-DNA complexes, 0.1 μg of E14-3 anti-DUX4 rabbit monoclonal antibody was added to the mixtures. For competition experiments, excess unlabeled probes of either wild-type or mutant sequences were included in the binding reaction. The gels were prepared and run as previously described (Knoepfler et al., 1999).

[2] = test system: Cultured control human myoblasts; assay: Beta-defensin 3 and innate immune response, real-time qPCR of IFIH1, ISG20, DEFB103; format: cell-based; conditions: RT-qPCR, similar titers, FIG. 7A
Procedure: Cultured control human myoblasts were grown to 80% confluence and infected with equivalent titers of lenti-GFP, lenti-DUX4-s and lenti-DUX4-fl in growth media supplemented with 8 μg/mL polybrene. Expression of innate immune responsive genes including IFIH1 (MDA5), ISG20 and DEFB103 were assessed by real-time qPCR as previously described at 24 hours (primer sequences below). For conditioned media, cells were infected with lenti-DUX4-fl for 12 hours, thoroughly washed 3 times with PBS and switched to fresh growth media to condition for 12 hours. Control conditioned media was produced from cells not infected with any lentivirus. Myoblasts were infected with lenti-GFP in either control conditioned media, lenti-DUX4-fl conditioned media or regular growth media supplemented with 1 μM human β-defensin 3 (Peptides International, Louisville, Ky.). Expression of innate immune responsive genes were examined after 24 hours.

[3] = test system: human rhabdomyosarcoma cell line RD; assay: Luciferase reporter assay with DUX4 binding sites; format: cell-based
Procedure: The DUX4 binding site in the ZSCAN4 pGL3-promoter construct was either reversed in orientation (as shown in FIG. 3D) or moved downstream of the reporter gene (as shown in FIG. 3E). […] Transfections and luciferase assays were done as in main methods. Data are given as the averages±SD of triplicates.
Transient DNA transfections of RD cells were performed using SuperFect (Qiagen) according to manufacturer specifications. Briefly, 3×10^5 cells were seeded per 35 mm plate the day prior to transfection. […] Cells were lysed 24 h post-transfection in Passive Lysis Buffer (Promega). Luciferase activities were quantified using reagents from the Dual-Luciferase Reporter Assay System (Promega) following manufacturer's instructions. Light emission was measured using BioTek Synergy2 luminometer. Luciferase data are given as the averages±SD of at least triplicates.

[4] = test system: cultured human skeletal muscle cells; conditions: cited from earlier work
Human myoblasts = assay: Expression array of the innate immune response to lentiviral infection versus uninfected cells; format: cell-based
Procedure: RNA was harvested from the lenti-viral infected cells and uninfected control cells at 24 hours after infection.

B1: DUX4-s: short splice form of DUX4 (SEQ ID NO:112), keeps the double-homeobox domains, lacks the C-terminal activation domain (protein, listed as Homo sapiens)
chain: MALPTPSDSTLPAEARGRGRRRRLVWTPSQSEALRACFERNPYPGIATRERLAQAIGIPEPRVQIWFQNERSRQLRQHRRESRPWPGRRGPPEGRRKRTAVTGSQTALLLRAFEKDRFPGIAAREELARETGLPESRIQIWFQNRRARHPGQGGRAPAQV
- binding to DUX4 core motifs [1]: specifically binds the same core binding site as DUX4-fl
- induction of the innate immune response in myoblasts [2]: induced the innate immune response
- luciferase expression from pGL3-promoter reporter with 31 bp DUX4 binding site ([3]; TRIM48 or ZSCAN4 site, co-transfection in RD cells): did not activate expression
- effect on DUX4-fl reporter activation when co-expressed ([3]; ZSCAN4 1.9 kb reporter): interfered with the activity of DUX4-fl
- toxicity of forced over-expression [4]: not toxic
- DEFB103A and DEFB103B transcripts (Human myoblasts; expression array): not
- CCL2 expression ratio vs GFP (.fc) (Human myoblasts; gene CCL2 NM_002982.3, vs lenti-GFP, 24 hours after infection): 0.44 log2 fold change
- CCL2 expression ratio vs NoLenti (.fc) (Human myoblasts; gene CCL2 NM_002982.3, vs uninfected, 24 hours after infection): 2.82 log2 fold change
- CCL5 expression ratio vs GFP (.fc) (Human myoblasts; gene CCL5 NM_002985.2, vs lenti-GFP, 24 hours after infection): 1.89 log2 fold change
- CCL5 expression ratio vs NoLenti (.fc) (Human myoblasts; gene CCL5 NM_002985.2, vs uninfected, 24 hours after infection): 4.33 log2 fold change
- CXCL1 expression ratio vs GFP (.fc) (Human myoblasts; gene CXCL1 NM_001511.1, vs lenti-GFP, 24 hours after infection): 0.20 log2 fold change
- CXCL1 expression ratio vs NoLenti (.fc) (Human myoblasts; gene CXCL1 NM_001511.1, vs uninfected, 24 hours after infection): 3.36 log2 fold change
- CXCL2 expression ratio vs GFP (.fc) (Human myoblasts; gene CXCL2 NM_002089.3, vs lenti-GFP, 24 hours after infection): 0.00 log2 fold change
- CXCL2 expression ratio vs NoLenti (.fc) (Human myoblasts; gene CXCL2 NM_002089.3, vs uninfected, 24 hours after infection): 1.09 log2 fold change
- CXCL5 expression ratio vs GFP (.fc) (Human myoblasts; gene CXCL5 NM_002994.3, vs lenti-GFP, 24 hours after infection): 0.82 log2 fold change
- CXCL5 expression ratio vs NoLenti (.fc) (Human myoblasts; gene CXCL5 NM_002994.3, vs uninfected, 24 hours after infection): 2.60 log2 fold change
- CXCL6 expression ratio vs GFP (.fc) (Human myoblasts; gene CXCL6 NM_002993.2, vs lenti-GFP, 24 hours after infection): 0.17 log2 fold change
- CXCL6 expression ratio vs NoLenti (.fc) (Human myoblasts; gene CXCL6 NM_002993.2, vs uninfected, 24 hours after infection): 1.77 log2 fold change
- DDX58 expression ratio vs GFP (.fc) (Human myoblasts; gene DDX58 NM_014314.3, vs lenti-GFP, 24 hours after infection): 0.02 log2 fold change
- DDX58 expression ratio vs NoLenti (.fc) (Human myoblasts; gene DDX58 NM_014314.3, vs uninfected, 24 hours after infection): 2.14 log2 fold change
- DHX58 (LGP2) expression ratio vs GFP (.fc) (Human myoblasts; gene DHX58 NM_024119.2, vs lenti-GFP, 24 hours after infection): 0.70 log2 fold change
- DHX58 (LGP2) expression ratio vs NoLenti (.fc) (Human myoblasts; gene DHX58 NM_024119.2, vs uninfected, 24 hours after infection): 3.04 log2 fold change
- IFI6 expression ratio vs GFP (.fc) (Human myoblasts; gene IFI6 NM_022872.2, vs lenti-GFP, 24 hours after infection): −0.04 log2 fold change
- IFI6 expression ratio vs NoLenti (.fc) (Human myoblasts; gene IFI6 NM_022872.2, vs uninfected, 24 hours after infection): 5.05 log2 fold change
- IFI16 expression ratio vs GFP (.fc) (Human myoblasts; gene IFI16 NM_005531.1, vs lenti-GFP, 24 hours after infection): 0.68 log2 fold change
- IFI16 expression ratio vs NoLenti (.fc) (Human myoblasts; gene IFI16 NM_005531.1, vs uninfected, 24 hours after infection): 2.52 log2 fold change
- IFI27 expression ratio vs GFP (.fc) (Human myoblasts; gene IFI27 NM_005532.3, vs lenti-GFP, 24 hours after infection): 0.27 log2 fold change
- IFI27 expression ratio vs NoLenti (.fc) (Human myoblasts; gene IFI27 NM_005532.3, vs uninfected, 24 hours after infection): 7.60 log2 fold change
- IFI35 expression ratio vs GFP (.fc) (Human myoblasts; gene IFI35 NM_005533.2, vs lenti-GFP, 24 hours after infection): 0.92 log2 fold change
- IFI35 expression ratio vs NoLenti (.fc) (Human myoblasts; gene IFI35 NM_005533.2, vs uninfected, 24 hours after infection): 4.33 log2 fold change
- IFI44L expression ratio vs GFP (.fc) (Human myoblasts; gene IFI44L NM_006820.1, vs lenti-GFP, 24 hours after infection): 0.47 log2 fold change
- IFI44L expression ratio vs NoLenti (.fc) (Human myoblasts; gene IFI44L NM_006820.1, vs uninfected, 24 hours after infection): 6.22 log2 fold change
- IFI44 expression ratio vs GFP (.fc) (Human myoblasts; gene IFI44 NM_006417.3, vs lenti-GFP, 24 hours after infection): 0.29 log2 fold change
- IFI44 expression ratio vs NoLenti (.fc) (Human myoblasts; gene IFI44 NM_006417.3, vs uninfected, 24 hours after infection): 3.59 log2 fold change
- IFIH1 (MDA5) expression ratio vs GFP (.fc) (Human myoblasts; gene IFIH1 NM_022168.2, vs lenti-GFP, 24 hours after infection): 1.66 log2 fold change
- IFIH1 (MDA5) expression ratio vs NoLenti (.fc) (Human myoblasts; gene IFIH1 NM_022168.2, vs uninfected, 24 hours after infection): 5.34 log2 fold change
- IFIT1 expression ratio vs GFP (.fc) (Human myoblasts; gene IFIT1 NM_001548.3, vs lenti-GFP, 24 hours after infection): 0.72 log2 fold change
- IFIT1 expression ratio vs NoLenti (.fc) (Human myoblasts; gene IFIT1 NM_001548.3, vs uninfected, 24 hours after infection): 5.50 log2 fold change
- IFIT3 expression ratio vs GFP (.fc) (Human myoblasts; gene IFIT3 NM_001549.2, vs lenti-GFP, 24 hours after infection): 1.81 log2 fold change
- IFIT3 expression ratio vs NoLenti (.fc) (Human myoblasts; gene IFIT3 NM_001549.2, vs uninfected, 24 hours after infection): 5.49 log2 fold change
- IFIT5 expression ratio vs GFP (.fc) (Human myoblasts; gene IFIT5 NM_012420.1, vs lenti-GFP, 24 hours after infection): −0.28 log2 fold change
- IFIT5 expression ratio vs NoLenti (.fc) (Human myoblasts; gene IFIT5 NM_012420.1, vs uninfected, 24 hours after infection): 0.81 log2 fold change
- IFITM1 expression ratio vs GFP (.fc) (Human myoblasts; gene IFITM1 NM_003641.3, vs lenti-GFP, 24 hours after infection): 0.34 log2 fold change
- IFITM1 expression ratio vs NoLenti (.fc) (Human myoblasts; gene IFITM1 NM_003641.3, vs uninfected, 24 hours after infection): 7.08 log2 fold change
- IFITM2 expression ratio vs GFP (.fc) (Human myoblasts; gene IFITM2 NM_006435.2, vs lenti-GFP, 24 hours after infection): 0.01 log2 fold change
- IFITM2 expression ratio vs NoLenti (.fc) (Human myoblasts; gene IFITM2 NM_006435.2, vs uninfected, 24 hours after infection): 1.29 log2 fold change
